For test [1], the target named is T1, GST-MUS81-EME1 complex (UniProt Q96NY9 1-551; Q96AY2 1-570).
T1 construct: MUS81 subunit of the complex encoded by pGEX-6P-1-MUS81-HisEME1; EME1 subunit of the complex encoded by pGEX-6P-1-MUS81-HisEME1; Plasmid was a gift from Dr. Stephen West and Dr. Curtis Harris; the construct is not described further; source: E. coli Rossetta (DE3) pLysS, purified (Glutathione Sepharose, Heparin, MonoS)
T1 sequence (looked up) 1: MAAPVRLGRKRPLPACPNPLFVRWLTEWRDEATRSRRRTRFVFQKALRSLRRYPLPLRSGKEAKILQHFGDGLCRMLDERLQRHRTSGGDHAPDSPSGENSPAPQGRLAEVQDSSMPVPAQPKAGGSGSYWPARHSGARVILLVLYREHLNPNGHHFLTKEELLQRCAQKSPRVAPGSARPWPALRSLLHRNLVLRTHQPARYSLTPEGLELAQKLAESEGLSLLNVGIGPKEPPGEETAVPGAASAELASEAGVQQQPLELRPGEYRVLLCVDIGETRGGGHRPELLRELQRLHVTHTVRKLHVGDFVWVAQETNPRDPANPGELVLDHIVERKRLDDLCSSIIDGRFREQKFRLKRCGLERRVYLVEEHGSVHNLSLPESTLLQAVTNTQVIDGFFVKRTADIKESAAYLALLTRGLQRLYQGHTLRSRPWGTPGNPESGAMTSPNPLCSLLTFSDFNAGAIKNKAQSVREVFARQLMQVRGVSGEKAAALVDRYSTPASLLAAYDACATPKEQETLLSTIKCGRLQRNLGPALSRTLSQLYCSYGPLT
T1 sequence (looked up) 2: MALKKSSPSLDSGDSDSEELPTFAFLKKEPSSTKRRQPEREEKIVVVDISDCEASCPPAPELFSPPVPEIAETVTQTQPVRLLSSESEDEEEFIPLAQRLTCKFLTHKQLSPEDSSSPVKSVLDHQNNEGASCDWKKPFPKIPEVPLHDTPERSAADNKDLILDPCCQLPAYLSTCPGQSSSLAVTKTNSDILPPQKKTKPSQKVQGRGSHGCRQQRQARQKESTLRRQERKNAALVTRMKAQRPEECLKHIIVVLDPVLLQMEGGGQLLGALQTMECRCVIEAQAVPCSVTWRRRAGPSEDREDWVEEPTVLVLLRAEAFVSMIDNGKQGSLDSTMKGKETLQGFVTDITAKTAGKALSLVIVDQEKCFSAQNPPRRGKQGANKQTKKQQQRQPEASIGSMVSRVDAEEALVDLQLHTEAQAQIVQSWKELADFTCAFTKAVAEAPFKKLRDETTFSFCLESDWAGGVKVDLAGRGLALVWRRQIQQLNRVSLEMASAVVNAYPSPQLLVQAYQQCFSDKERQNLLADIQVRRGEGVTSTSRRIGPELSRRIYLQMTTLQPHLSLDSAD
Briefly: pull-down; purified GST-MUS81-EME1, GST-MUS81 or GST-MUS81 fragments (5 µg) incubated with MBP-tagged RECQ4 fragments (5 µg) and Glutathione Sepharose 4 Fast Flow beads in 1X K buffer with 150 mM KCl, 0.01% NP40, 1 mM DTT, 30 min, 4 °C; flow-through and bound fractions on SDS-PAGE, Coomassie blue. The following applies: both partners purified.

Test [2] addresses GST-MUS81-EME1 complex (UniProt Q96NY9).

B1: MBP-RECQ4 (1-492) (domain or fragment, UniProt O94761 1-492, looked up)
chain: MERLRDVRERLQAWERAFRRQRGRRPSQDDVEAAPEETRALYREYRTLKRTTGQAGGGLRSSESLPAAAEEAPEPRCWGPHLNRAATKSPQSTPGRSRQGSVPDYGQRLKANLKGTLQAGPALGRRPWPLGRASSKASTPKPPGTGPVPSFAEKVSDEPPQLPEPQPRPGRLQHLQASLSQRLGSLDPGWLQRCHSEVPDFLGAPKACRPDLGSEESQLLIPGESAVLGPGAGSQGPEASAFQEVSIRVGSPQPSSSGGEKRRWNEEPWESPAQVQQESSQAGPPSEGAGAVAVEEDPPGEPVQAQPPQPCSSPSNPRYHGLSPSSQARAGKAEGTAPLHIFPRLARHDRGNYVRLNMKQKHYVRGRALRSRLLRKQAWKQKWRKKGECFGGGGATVTTKESCFLNEQFDHWAAQCPRPASEEDTDAVGPEPLVPSPQPVPEVPSLDPTVLPLYSLGPSGQLAETPAEVFQALEQLGHQAFRPGQERAVMRI
notes: cloned into pMAL-c2x from pET32a-RECQ4-9XHis; source: E. coli BL21(DE3) pLysS, purified (His-Select nickel, amylose)
In the case of B1, the binding result with GST-MUS81-EME1 complex [1] is “binds”.

B2: MBP-RECQ4 (1-400) (domain or fragment, UniProt O94761 1-400, looked up)
chain: MERLRDVRERLQAWERAFRRQRGRRPSQDDVEAAPEETRALYREYRTLKRTTGQAGGGLRSSESLPAAAEEAPEPRCWGPHLNRAATKSPQSTPGRSRQGSVPDYGQRLKANLKGTLQAGPALGRRPWPLGRASSKASTPKPPGTGPVPSFAEKVSDEPPQLPEPQPRPGRLQHLQASLSQRLGSLDPGWLQRCHSEVPDFLGAPKACRPDLGSEESQLLIPGESAVLGPGAGSQGPEASAFQEVSIRVGSPQPSSSGGEKRRWNEEPWESPAQVQQESSQAGPPSEGAGAVAVEEDPPGEPVQAQPPQPCSSPSNPRYHGLSPSSQARAGKAEGTAPLHIFPRLARHDRGNYVRLNMKQKHYVRGRALRSRLLRKQAWKQKWRKKGECFGGGGATVTTK
notes: RECQ4 residues 1-400; cloned into pMAL-c2x from pET32a-RECQ4-9XHis; also called fragment (1-400); RECQ4 truncation (1-400 aa); source: E. coli BL21(DE3) pLysS, purified (His-Select nickel, amylose, MonoS)
Turning to B2, the binding result in the test with GST-MUS81-EME1 complex [1] is “binds”.

B3: RECQ4 (WT), full-length (natural protein)
chain: MERLRDVRERLQAWERAFRRQRGRRPSQDDVEAAPEETRALYREYRTLKRTTGQAGGGLRSSESLPAAAEEAPEPRCWGPHLNRAATKSPQSTPGRSRQGSVPDYGQRLKANLKGTLQAGPALGRRPWPLGRASSKASTPKPPGTGPVPSFAEKVSDEPPQLPEPQPRPGRLQHLQASLSQRLGSLDPGWLQRCHSEVPDFLGAPKACRPDLGSEESQLLIPGESAVLGPGAGSQGPEASAFQEVSIRVGSPQPSSSGGEKRRWNEEPWESPAQVQQESSQAGPPSEGAGAVAVEEDPPGEPVQAQPPQPCSSPSNPRYHGLSPSSQARAGKAEGTAPLHIFPRLARHDRGNYVRLNMKQKHYVRGRALRSRLLRKQAWKQKWRKKGECFGGGGATVTTKESCFLNEQFDHWAAQCPRPASEEDTDAVGPEPLVPSPQPVPEVPSLDPTVLPLYSLGPSGQLAETPAEVFQALEQLGHQAFRPGQERAVMRILSGISTLLVLPTGAGKSLCYQLPALLYSRRSPCLTLVVSPLLSLMDDQVSGLPPCLKAACIHSGMTRKQRESVLQKIRAAQVHVLMLTPEALVGAGGLPPAAQLPPVAFACIDEAHCLSQWSHNFRPCYLRVCKVLRERMGVHCFLGLTATATRRTASDVAQHLAVAEEPDLHGPAPVPTNLHLSVSMDRDTDQALLTLLQGKRFQNLDSIIIYCNRREDTERIAALLRTCLHAAWVPGSGGRAPKTTAEAYHAGMCSRERRRVQRAFMQGQLRVVVATVAFGMGLDRPDVRAVLHLGLPPSFESYVQAVGRAGRDGQPAHCHLFLQPQGEDLRELRRHVHADSTDFLAVKRLVQRVFPACTCTCTRPPSEQEGAVGGERPVPKYPPQEAEQLSHQAAPGPRRVCMGHERALPIQLTVQALDMPEEAIETLLCYLELHPHHWLELLATTYTHCRLNCPGGPAQLQALAHRCPPLAVCLAQQLPEDPGQGSSSVEFDMVKLVDSMGWELASVRRALCQLQWDHEPRTGVRRGTGVLVEFSELAFHLRSPGDLTAEEKDQICDFLYGRVQARERQALARLRRTFQAFHSVAFPSCGPCLEQQDEERSTRLKDLLGRYFEEEEGQEPGGMEDAQGPEPGQARLQDWEDQVRCDIRQFLSLRPEEKFSSRAVARIFHGIGSPCYPAQVYGQDRRFWRKYLHLSFHALVGLATEELLQVAR
Take B3: the stimulation of MUS81-EME1 (0.5 nM) cleavage of 3'-flap DNA (6 nM), 20 min at 37 °C; RECQ4 5, 25 and 50 nM with GST-MUS81-EME1 complex [2] is > 10 fold.

The values above are taken from PMC11791078, “RECQ4-MUS81 interaction contributes to telomere maintenance with implications to Rothmund-Thomson syndrome” (Nature Communications, 2025).
